The supplement of paper PMC9170038

System: MS2 coat protein
Assay: apparent KD of MS2 coat protein; designed switch direction (-1 OFF switch, 1 ON switch): -1; higher = weaker reporter binding
In short: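 For each design, the apparent KD is the median over clusters of curves fitted to normalised cluster fluorescence. Clusters held RNA switches with common flanks, transcribed on Illumina chips by stalled E. coli RNA polymerase. These were titrated with SNAP-549-labelled MS2 coat protein, doubling from 0.7 or 1.5 nM to 3 µM, without input, with 200 uM small-molecule ligand, or with an oligonucleotide input.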

[1] = Eterna round: R95, input ligand: microRNA oligo, concentration not stated
[2] = input ligand: microRNA oligo, concentration not stated
[3] = Eterna round: R95, input ligand: FMN 200 uM
[4] = Eterna round: R95, input ligand: none

## CCGGAAAUAGAGGAUAUAGUACUGGAUACAGUACUAGAAGGCUAUACAUGAGGAUCACCCAUGUGUCCUACCGG [Fiskers Ex 6 - 62] (puzzle: Exclusion 6)
[1]
  apparent KD of MS2 coat protein: 13.9 nM

## GGAGGUGAGGUAAGGAUAUCCUCCUCGAAAGAGGAGGAGAAGGUACAUGAGGAUCACCCAUGUAAGGAAGGAGG [AK-MS2ROC-r4-Bmoexclusion4-11] (Eterna round: R97, puzzle: Brourd's mod of Exclusion 4)
Input ligand: FMN 200 uM
  apparent KD of MS2 coat protein: 152 nM
Input ligand: none
  apparent KD of MS2 coat protein: 54.2 nM

## GGUCCACGAGGAUAUCGAUUAUAGUACAUGAGGAUCACCCAUGUUGUCCAGGUUUCGAUUCGAGAAGGCGUGGGUU [LRO-Ex5-02] (puzzle: Exclusion 5)
[1]
  apparent KD of MS2 coat protein: 51.8 nM

## GUGGCACAUGAGGAUCACCCAUGUCAGGAUAUCGUGUGUUUUUUUUCGGCCGCGCGCGCGAGAAGGGACGUCUU (puzzle: Exclusion 1)
[1]
  apparent KD of MS2 coat protein: 97.8 nM

## AUAAUUAAUGCAGGAUAUCAGCACGUGUAGUGCUGAGAAGGGCACAUGAGGAUCACCCAUGUGAUCAAUUAAUAUUAAUAUUAU [ENG1/11-D3] (Eterna round: R96, puzzle: Exclusion NG 1)
[2]
  apparent KD of MS2 coat protein: 48.4 nM

## AGCUCAAAAGUGAGGAUAUCUAGGGUCAAAUGACCGGAGAAGGCACAUGAGGAUCACCCAUGUAACGCCAUGGA [Ceinveusar] (puzzle: Brourd's mod of Exclusion 4)
[1]
  apparent KD of MS2 coat protein: 12.5 nM

## ACAUGAGGAUCACCCAUGUGCCCAUCUAGCACAUGUCCUCGCUAGGAUAUGUAGGCCUCGACGCCGCAGAAGGAGCUAAAAGAG [Raatlaan] (Eterna round: R96, puzzle: Exclusion NG 3)
Input ligand: FMN 200 uM
  apparent KD of MS2 coat protein: 129 nM
[2]
  apparent KD of MS2 coat protein: 44.6 nM
Input ligand: none
  apparent KD of MS2 coat protein: 64.5 nM

## AUGCUCCGUGUAGGAUAUCGCCGCACCACUCGGCGAGAAGGACAUGAGGAUCACCCAUGUAUGUUAUUAUCACGUGUGGCGCGC [Design 43] (Eterna round: R96, puzzle: Exclusion NG 1)
Input ligand: FMN 200 uM
  apparent KD of MS2 coat protein: 15.1 nM
[2]
  apparent KD of MS2 coat protein: 13 nM
Input ligand: none
  apparent KD of MS2 coat protein: 15.9 nM

## CUUGUUUAUGUGAGGAUAUACUGUUAGUAAUGUUUGUAGAAGGUACAUGAGGAUCACCCAUGUUUAUUUCCUUU [JR_BME4_Sub045] (puzzle: Brourd's mod of Exclusion 4)
[1]
  apparent KD of MS2 coat protein: 13.8 nM

## GCACGGUAAGUGAGGAUAUACCUCUGGAUACAGAGGUAGAAGGCACAUGAGGAUCACCCAUGUUCAAGCCGUGC [Fiskers BMX 4 - 85] (puzzle: Brourd's mod of Exclusion 4)
[3]
  apparent KD of MS2 coat protein: 14.5 nM
[1]
  apparent KD of MS2 coat protein: 13.2 nM
[4]
  apparent KD of MS2 coat protein: 14.4 nM

## CUGCCAACGAAGCUUGUCGACAUGAGGAUCACCCAUGUUUCGCAAAGUGUUACAAAAAAAUAUCUGUAUGAAAAUGU [JR_Sensorv2_yov_Sub1319] (Eterna round: R96, puzzle: Sensor v2, turn-off variant)
Input ligand: FMN 200 uM
  apparent KD of MS2 coat protein: 11.8 nM
[2]
  apparent KD of MS2 coat protein: 10.2 nM
Input ligand: none
  apparent KD of MS2 coat protein: 15.9 nM

## AUUAUAUAGGUAGGAUAUAGAAUAUUAUUUUAACAUGAGGAUCACCCAUGUAACCUUAUGUGUAGCUAGAAGGACCAUUUAUUA [Title] (Eterna round: R96, puzzle: Exclusion NG 2)
[2]
  apparent KD of MS2 coat protein: 64.6 nM

## CUCUUGUCAGGAUAUCUAAGCUGCCUCCCGGUAGCCGAAUUAGAGAAGGGACAUGAGGAUCACCCAUGUAAAAG [Qubile] (puzzle: Exclusion 4)
[3]
  apparent KD of MS2 coat protein: 58.3 nM
[1]
  apparent KD of MS2 coat protein: 160 nM
[4]
  apparent KD of MS2 coat protein: 280 nM

## AAAAAGUUAGGAUAUACAUGAGGAUCACCCAUGUACAUAUAUGGAGAAAAAAACAGUAGUAGAAGGGACAAAAA [EX2 Malc#12] (Eterna round: R96, puzzle: Exclusion 3)
Input ligand: FMN 200 uM
  apparent KD of MS2 coat protein: 28.8 nM
[2]
  apparent KD of MS2 coat protein: 23.3 nM
Input ligand: none
  apparent KD of MS2 coat protein: 29.2 nM

## GUUUUCAGACGGAGAUCCUACAUGAGGAUCACCCAUGUCUCACUUGUUUUUUGCUCGUCUUAUCCUCCUCUGUUCUC [Elimod 30 - Jieux - Sensor, turn-off variant 1] (Eterna round: R97, puzzle: Sensor, turn-off variant 1)
Input ligand: FMN 200 uM
  apparent KD of MS2 coat protein: 414 nM
Input ligand: none
  apparent KD of MS2 coat protein: 667 nM
